From the supplement of paper PMC9732359
± gives the uncertainty stated by the source.

experiment: protein stability index of a GFP-peptide fusion (yeast GPS) (PSI 1-4); higher = more stable; sorted into four equal gates, so the index is relative within each strain; conditions: san1∆
In short: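 Tiled yeast protein peptides of 17 residues were each joined downstream of GFP, on plasmids that also express Cherry. The pooled library was maintained in yeast, and mid-log cultures in leucine-free medium were sorted into four equal gates on the GFP/Cherry ratio. Plasmids from every gate were amplified by PCR and sequenced on Illumina, with barcodes linking reads to strains. The protein stability index of a peptide is its gate-number-weighted read frequency summed over the gates.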

NGALDPKMGVSSSSLEC [RPO31] and NGCSGADVKGVCTEAGM [RPT6] are within error of each other in protein stability index: 3.22 ± 0.067 for the first, 3.25 ± 0.11 for the second.

Going from NGDLTVSLCAKNMGLVP [SSN2] to NGEEIVGFWKDDGDDED [MTR3], the protein stability index rises from 2.13 ± 0.091 to 2.89 ± 0.091.

First: NGITLALIDAGISMFDY [SKI6]
Second: NGKDNNNESNKNNNGDE [MED2]
The protein stability index of the first is lower: 1.59 ± 0.14 for the first, 3.23 ± 0.034 for the second.

NGKIWVKCEELSNTLAC [RRP40] and NGLLNEISRLKTSLSIK [SMC2] are within error of each other in protein stability index: 3.26 ± 0.067 for the first, 3.12 ± 0.11 for the second.

NGNLTSNQLISNYAASN [SWI1] and NGVNVQIDQLNRLLPNL [GRR1] are within error of each other in protein stability index: 2.98 ± 0.11 for the first, 2.88 ± 0.039 for the second.

Compared with NHFSLSYKDSGLWGFST [COR1], NHWRQNKGRAVYINPSG [BRR2] is lower in protein stability index: 3.15 ± 0.046 for the first, 2.85 ± 0.074 for the second.

Going from NIATQQNMQQSLQQMQH [GAL11] to NIDTITDAMTESQPKQT [MCD1], the protein stability index rises from 2.68 ± 0.17 to 3 ± 0.076.

NIKLLNNRMGSYDCTGV [POP1] and NIKSSISNGNLATGPNL [YOR098C/NUP1] are within error of each other in protein stability index: 2.83 ± 0.071 for the first, 2.99 ± 0.11 for the second.

First: NILWRIADKTTYDKETI [SIR4]
Second: NIMSASGGLFGNQQQQL [YGL172W/NUP49]
The protein stability index of the first is lower: 2.98 ± 0.1 for the first, 3.29 ± 0.1 for the second.

NINAKMETRINILLRER [YIL149C/MLP2] and NIPWDVPGMPAPIKKII [PRP8] are within error of each other in protein stability index: 2.61 ± 0.12 for the first, 2.8 ± 0.28 for the second.

NISKSRAKPVTNSSILL [RRP6] and NISRDFQSYIVSSLPGS [COR1] are within error of each other in protein stability index: 2.23 ± 0.1 for the first, 2.08 ± 0.098 for the second.

First: NIVNDFTPEEEAAIRRE [SKP1]
Second: NKEMHTDLGKDIPFFPS [SSN2]
The protein stability index of the first is higher: 3.08 ± 0.13 for the first, 2.52 ± 0.066 for the second.

Compared with NKIDQSLQYIERQQDEL [YJL041W/NSP1], NKLSSILQNEHDYWNKI [SRB4] is lower in protein stability index: 3.25 ± 0.096 for the first, 2.25 ± 0.099 for the second.

Going from NKSISDEITEDMFEMSD [SSN2] to NKYQYSLKQYAGNLITT [SRP68], the protein stability index falls from 2.82 ± 0.058 to 1.7 ± 0.11.

Going from NLCGDISLEALNFYITN [SIR3] to NLDFDPRDVIKGKDFEI [FAS1], the protein stability index rises from 2.6 ± 0.053 to 3.32 ± 0.11.

Going from NLDNLQKVSQLESADKQ [POP4] to NLEFDSTNHPDYDVSKK [SRP14], the protein stability index rises from 3.01 ± 0.092 to 3.2 ± 0.048.

NLENMSIQDTSTVAKNV [YCG1] and NLFGATANANKPAFSFG [YJL041W/NSP1] are within error of each other in protein stability index: 3.1 ± 0.04 for the first, 3.14 ± 0.074 for the second.

Going from NLKQANNVAYGKKRFRV [SMC4] to NLPILKNHFRKHWQERV [RPL13A], the protein stability index rises from 2.09 ± 0.095 to 2.31 ± 0.1.

Compared with NLRHERNSLETKLTTCK [YIL149C/MLP2], NMFELAQQLVGVYKRDN [SMC4] is lower in protein stability index: 2.93 ± 0.12 for the first, 1.61 ± 0.16 for the second.

Going from NMFGDYSNEPFNTNFDD [SNF6] to NMGMNNMNNGGKELDSL [PGD1], the protein stability index rises from 3.06 ± 0.069 to 3.24 ± 0.11.

NMMEHWDYLQLTVAMYI [RPO31] and NMVSLRGRNDTLERVHL [GRR1] are within error of each other in protein stability index: 2.4 ± 0.15 for the first, 2.39 ± 0.17 for the second.

NNDKREIQEELERFNKR [SMC1] and NNDQKRQQAYKTAQTLD [YJL041W/NSP1] are within error of each other in protein stability index: 3.4 ± 0.062 for the first, 3.33 ± 0.053 for the second.

NNHNDSNRLHPPDIHPN [GRR1] and NNMLYPREDKENNRLLF [RPB9] are within error of each other in protein stability index: 2.8 ± 0.039 for the first, 2.78 ± 0.1 for the second.

NNNDNDANRNANNIVNI [GRR1] and NNNDNNNSNTVASSTNF [SWI1] are within error of each other in protein stability index: 2.9 ± 0.036 for the first, 2.94 ± 0.031 for the second.

Going from NNNETSKPAFSFGAKSD [YJL041W/NSP1] to NNNNNNNNNSTRPQMPS [GRR1], the protein stability index falls from 3.15 ± 0.067 to 3.062 ± 0.018.

NNNPLQQQSSQNTVPNV [GAL11] and NNPDMMIQPPQQGQNMS [ROX3] are within error of each other in protein stability index: 3 ± 0.033 for the first, 3.05 ± 0.12 for the second.

Compared with NNSAPNNTNNANSSITP [YJL041W/NSP1], NNSGNDNNNTTNNDSNN [MED2] is higher in protein stability index: 2.73 ± 0.11 for the first, 3.133 ± 0.023 for the second.

Going from NNTVDPGFDEFQLIDMK [CSI1] to NNVAYGKKRFRVVTVDG [SMC4], the protein stability index falls from 3.31 ± 0.038 to 1.78 ± 0.13.

First: NPEEVEQVAEEAAAAEE [RPS0B]
Second: NPYNTRSNKIKVVKTPG [RPL34A]
The protein stability index of the first is higher: 2.95 ± 0.12 for the first, 2.16 ± 0.08 for the second.

NQFLKIKKKRKELFEKT [SMC1] and NQIPVTEHSKVTRFDEK [SRB6] are within error of each other in protein stability index: 2.96 ± 0.12 for the first, 2.86 ± 0.052 for the second.

Going from NQLLAALVAYTPTDVIG [RRP6] to NQNICTSVTRRSPVFAL [GRR1], the protein stability index rises from 1.25 ± 0.072 to 1.5 ± 0.058.

Compared with NQQQQNQQPQQQQQQQQ [SWI1], NQSNLNGGNNTQQPGTN [SNF2] is higher in protein stability index: 2.88 ± 0.03 for the first, 3.08 ± 0.062 for the second.

Compared with NRAMEYDALLSINVHSN [RET1], NRLLPNLPEEERKQIHE [GRR1] is lower in protein stability index: 2.29 ± 0.07 for the first, 1.71 ± 0.15 for the second.

First: NRSNDALIKFMEYHISN [FAS2]
Second: NSAIIQNLRKELLIYKK [YIL149C/MLP2]
The protein stability index of the first is lower: 2.96 ± 0.084 for the first, 3.23 ± 0.078 for the second.

NSASSAPTPAAPGASVP [SWI1] and NSDLEFNTFWDEKGNEI [ARP9] are within error of each other in protein stability index: 3.21 ± 0.057 for the first, 3.31 ± 0.12 for the second.

Going from NSISDFLGEQVNEPTKN [RPN1] to NSISSQPASYHSVQETN [SSN2], the protein stability index falls from 3.34 ± 0.1 to 2.88 ± 0.068.

Going from NSIYCPTQTVAELDLMS [RPN6] to NSKPEKSSDSNDSNPSF [YLR335W/NUP2], the protein stability index rises from 1.39 ± 0.11 to 2.25 ± 0.061.

NSQERVQDLGSAISVTN [SIR2] and NSRNAIRKLVKNGTIVK [RPL19A] are within error of each other in protein stability index: 3.01 ± 0.092 for the first, 2.89 ± 0.057 for the second.

Compared with NSSKYYINEKESSYTEV [SMC4], NSSNYFGELQFAFLNAM [AAR2] is higher in protein stability index: 2.43 ± 0.12 for the first, 2.69 ± 0.071 for the second.

Going from NSSRFSDPMLQRTATLC [YCS4] to NSSTSSTSNTPSPPNVI [YDL088C/ASM4], the protein stability index falls from 3.21 ± 0.093 to 2.7 ± 0.052.

Going from NSTGHSSNTNNNTNNNN [SWI1] to NTAAALVSLLDENDSKK [YAR002W/NUP60], the protein stability index falls from 3.17 ± 0.054 to 3.01 ± 0.087.

Compared with NTAPGLGNTVSTQPSFA [YGR119C/NUP57], NTDLKDIIQGNPLMYSG [PCI8] is higher in protein stability index: 2.9 ± 0.098 for the first, 3.21 ± 0.11 for the second.

NTIRQNVTSSGDHNKLR [YML103C/NUP188] and NTLVRPNGTKKAYVRLT [RPL25] are within error of each other in protein stability index: 3.21 ± 0.075 for the first, 3.03 ± 0.17 for the second.

First: NTSAKNKNGENKKIGKR [SIR4]
Second: NTSESLLVDIQKYNQIQ [SMC2]
The protein stability index of the first is higher: 3.03 ± 0.21 for the first, 1.66 ± 0.15 for the second.

First: NTSFSFTKPPANETDKR [YOR098C/NUP1]
Second: NTTQDNGGDKELEMIGG [YCS4]
The protein stability index of the first is higher: 3.07 ± 0.046 for the first, 2.46 ± 0.2 for the second.

NTTTYKSRPDRPKPVSP [SNF5] and NVAKNMKTPSLTVYLEP [RPO21] are within error of each other in protein stability index: 3 ± 0.047 for the first, 2.94 ± 0.056 for the second.

First: NVEPTENAYKSENAPSA [YAR002W/NUP60]
Second: NVFHGLCAGANNPKIQT [IRR1]
The protein stability index of the first is higher: 2.29 ± 0.16 for the first, 1.48 ± 0.086 for the second.

Compared with NVGKPDQSIASGNTNGA [YOR098C/NUP1], NVKEITEKLKISPESVF [SMC3] is lower in protein stability index: 2.83 ± 0.085 for the first, 2.32 ± 0.13 for the second.

NVLDYFAESPFFDKTSN [MED6] and NVNETMSRSLANGIINV [SMC3] are within error of each other in protein stability index: 2.87 ± 0.062 for the first, 2.96 ± 0.081 for the second.

Compared with NVPSTKFNAAPEENATE [SNF12], NVRDDMKPSDNISTNTN [SSN2] is lower in protein stability index: 3.17 ± 0.058 for the first, 2.88 ± 0.051 for the second.

First: NVRMDTMANILYYPQKP [RPB2]
Second: NVSIVANYIKERTKNAQ [SMC4]
The protein stability index of the first is higher: 3.12 ± 0.1 for the first, 2.91 ± 0.05 for the second.

Going from NVSSNIVKNAEQHNLVK [RPS20] to NVTETYSVYLIHEIRLN [SIR3], the protein stability index falls from 3.26 ± 0.046 to 2.42 ± 0.14.

First: NVYRVTVHKTFEGNVAT [PRP8]
Second: NVYVGMTDMQIQWYKSL [ISW2]
The protein stability index of the first is higher: 3.23 ± 0.22 for the first, 1.99 ± 0.072 for the second.

NVYVLPKNLLKKFIEIS [PRP8] showed a protein stability index of 2.06 ± 0.084.
